Reference: US20230158141A1 (YAFEI SHANGHAI BIOLOG MEDICINE SCIENCE AND TECHNOLOGY, published 2023)
Substitutions are numbered along the chain they refer to.

T1: IL-10R1-Fc (UniProt Q13651 22-235, limits assumed)
T1 sequence (looked up): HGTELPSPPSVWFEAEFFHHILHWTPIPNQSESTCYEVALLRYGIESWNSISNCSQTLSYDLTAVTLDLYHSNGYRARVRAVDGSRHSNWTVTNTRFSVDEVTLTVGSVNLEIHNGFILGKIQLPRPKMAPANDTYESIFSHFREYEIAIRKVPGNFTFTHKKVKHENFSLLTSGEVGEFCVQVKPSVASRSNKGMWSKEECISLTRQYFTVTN

B1: IL-10 Thr6Cys-R4-7 (ligand, human, UniProt P22301 19-178, looked up)
chain: SPGQGCQSENSCTHFPGNLPNMLRDLRDAFSRVKTFFQMKDQLDNLLLKESLLEDFKGYLGCQALSEMIQFYLEEVMPQAENQDPDIKAHVNSLGENLKTLRLRLRRCHRFLPCENKSKAVEQVKNAFNKLQEKGIYKAMSEFDIFINYIEAYMTMKIRN
modifications: R4-7 on Cys 6
notes: mature
B2: IL-10 Arg27Cys-R4-20 (ligand, human, UniProt P22301 19-178, looked up)
chain: B1 chain with C6T, R27C
modifications: R4-20 on Cys 27
notes: mature
B3: IL-10 Arg27Cys-S48 (ligand, human, UniProt P22301 19-178, looked up)
chain: B1 chain with C6T, R27C
modifications: S48 on Cys 27
notes: mature
B4: IL-10 Arg159Cys-R4-20 (ligand, human, UniProt P22301 19-178, looked up)
chain: B1 chain with C6T, R159C
modifications: R4-20 on Cys 159
notes: mature
B5: IL-10 Arg159Cys-S48 (ligand, human, UniProt P22301 19-178, looked up)
chain: B1 chain with C6T, R159C
modifications: S48 on Cys 159
notes: mature
B6: IL-10 Asn45Cys-R4-18 (ligand, human, UniProt P22301 19-178, looked up)
chain: B1 chain with C6T, N45C
modifications: R4-18 on Cys 45
notes: mature
B7: IL-10 Asn45Cys-S48 (ligand, human, UniProt P22301 19-178, looked up)
chain: B1 chain with C6T, N45C
modifications: S48 on Cys 45
notes: mature
B8: IL-10 Asn148Cys-R4-18 (ligand, human, UniProt P22301 19-178, looked up)
chain: B1 chain with C6T, N148C
modifications: R4-18 (printed R418) on Cys 148
notes: mature
B9: IL-10 Asn148Cys-S48 (ligand, human, UniProt P22301 19-178, looked up)
chain: B1 chain with C6T, N148C
modifications: S48 on Cys 148
notes: mature
B10: IL-10 Asp25Cys-R4-12 (ligand, human, UniProt P22301 19-178, looked up)
chain: B1 chain with C6T, D25C
modifications: R4-12 on Cys 25
notes: mature
B11: IL-10 Asp28Cys-R4-11 (ligand, human, UniProt P22301 19-178, looked up)
chain: B1 chain with C6T, D28C
modifications: R4-11 on Cys 28
notes: mature
B12: IL-10 Asp28Cys-S48 (ligand, human, UniProt P22301 19-178, looked up)
chain: B1 chain with C6T, D28C
modifications: S48 on Cys 28
notes: mature
B13: IL-10 Asp41Cys-R4-11 (ligand, human, UniProt P22301 19-178, looked up)
chain: B1 chain with C6T, D41C
modifications: R4-11 on Cys 41
notes: mature
B14: IL-10 Asp41Cys-S48 (ligand, human, UniProt P22301 19-178, looked up)
chain: B1 chain with C6T, D41C
modifications: S48 on Cys 41
notes: mature
B15: IL-10 Asp44Cys-R4-11 (ligand, human, UniProt P22301 19-178, looked up)
chain: B1 chain with C6T, D44C
modifications: R4-11 on Cys 44
notes: mature
B16: IL-10 Asp44Cys-S48 (ligand, human, UniProt P22301 19-178, looked up)
chain: B1 chain with C6T, D44C
modifications: S48 on Cys 44
notes: mature
B17: IL-10 Asp144Cys-R4-11 (ligand, human, UniProt P22301 19-178, looked up)
chain: B1 chain with C6T, D144C
modifications: R4-11 on Cys 144
notes: mature
B18: IL-10 Asp144Cys-S48 (ligand, human, UniProt P22301 19-178, looked up)
chain: B1 chain with C6T, D144C
modifications: S48 on Cys 144
notes: mature
B19: IL-10 Gln38Cys-R4-19 (ligand, human, UniProt P22301 19-178, looked up)
chain: B1 chain with C6T, Q38C
modifications: R4-19 on Cys 38
notes: mature
B20: IL-10 Gln38Cys-S48 (ligand, human, UniProt P22301 19-178, looked up)
chain: B1 chain with C6T, Q38C
modifications: S48 on Cys 38
notes: mature
B21: IL-10 Gln42Cys-R4-19 (ligand, human, UniProt P22301 19-178, looked up)
chain: B1 chain with C6T, Q42C
modifications: R4-19 on Cys 42
notes: mature
B22: IL-10 Gln42Cys-S48 (ligand, human, UniProt P22301 19-178, looked up)
chain: B1 chain with C6T, Q42C
modifications: S48 on Cys 42
notes: mature
B23: IL-10 Glu50Cys-R4-12 (ligand, human, UniProt P22301 19-178, looked up)
chain: B1 chain with C6T, E50C
modifications: R4-12 on Cys 50
notes: mature
B24: IL-10 Glu50Cys-S48 (ligand, human, UniProt P22301 19-178, looked up)
chain: B1 chain with C6T, E50C
modifications: S48 on Cys 50
notes: mature
B25: IL-10 Glu142Cys-R4-12 (ligand, human, UniProt P22301 19-178, looked up)
chain: B1 chain with C6T, E142C
modifications: R4-12 on Cys 142
notes: mature
B26: IL-10 Glu142Cys-S48 (ligand, human, UniProt P22301 19-178, looked up)
chain: B1 chain with C6T, E142C
modifications: S48 on Cys 142
notes: mature
B27: IL-10 Glu151Cys-R4-12 (ligand, human, UniProt P22301 19-178, looked up)
chain: B1 chain with C6T, E151C
modifications: R4-12 on Cys 151
notes: mature
B28: IL-10 Glu151Cys-S48 (ligand, human, UniProt P22301 19-178, looked up)
chain: B1 chain with C6T, E151C
modifications: S48 on Cys 151
notes: mature
B29: IL-10 Gly17Cys-R4-1 (ligand, human, UniProt P22301 19-178, looked up)
chain: B1 chain with C6T, G17C
modifications: R4-1 on Cys 17
notes: mature
B30: IL-10 Gly17Cys-S48 (ligand, human, UniProt P22301 19-178, looked up)
chain: B1 chain with C6T, G17C
modifications: S48 on Cys 17
notes: mature
B31: IL-10 Gly135Cys-R4-1 (ligand, human, UniProt P22301 19-178, looked up)
chain: B1 chain with C6T, G135C
modifications: R4-1 on Cys 135
notes: mature
B32: IL-10 Gly135Cys-S48 (ligand, human, UniProt P22301 19-178, looked up)
chain: B1 chain with C6T, G135C
modifications: S48 on Cys 135
notes: mature
B33: IL-10 Ile69Cys-R4-6 (ligand, human, UniProt P22301 19-178, looked up)
chain: B1 chain with C6T, I69C
modifications: R4-6 on Cys 69
notes: mature
B34: IL-10 Ile69Cys-S48 (ligand, human, UniProt P22301 19-178, looked up)
chain: B1 chain with C6T, I69C
modifications: S48 on Cys 69
notes: mature
B35: IL-10 Ile158Cys-R4-6 (ligand, human, UniProt P22301 19-178, looked up)
chain: B1 chain with C6T, I158C
modifications: R4-6 on Cys 158
notes: mature
B36: IL-10 Ile158Cys-S48 (ligand, human, UniProt P22301 19-178, looked up)
chain: B1 chain with C6T, I158C
modifications: S48 on Cys 158
notes: mature
B37: IL-10 Leu19Cys-R4-7 (ligand, human, UniProt P22301 19-178, looked up)
chain: B1 chain with C6T, L19C
modifications: R4-7 on Cys 19
notes: mature
B38: IL-10 Leu19Cys-S48 (ligand, human, UniProt P22301 19-178, looked up)
chain: B1 chain with C6T, L19C
modifications: S48 on Cys 19
notes: mature
B39: IL-10 Leu23Cys-R4-6 (ligand, human, UniProt P22301 19-178, looked up)
chain: B1 chain with C6T, L23C
modifications: R4-6 on Cys 23
notes: mature
B40: IL-10 Leu23Cys-S48 (ligand, human, UniProt P22301 19-178, looked up)
chain: B1 chain with C6T, L23C
modifications: S48 on Cys 23
notes: mature
B41: IL-10 Leu26Cys-R4-6 (ligand, human, UniProt P22301 19-178, looked up)
chain: B1 chain with C6T, L26C
modifications: R4-6 on Cys 26
notes: mature
B42: IL-10 Leu26Cys-S48 (ligand, human, UniProt P22301 19-178, looked up)
chain: B1 chain with C6T, L26C
modifications: S48 on Cys 26
notes: mature
B43: IL-10 Leu46Cys-R4-6 (ligand, human, UniProt P22301 19-178, looked up)
chain: B1 chain with C6T, L46C
modifications: R4-6 on Cys 46
notes: mature
B44: IL-10 Leu46Cys-S48 (ligand, human, UniProt P22301 19-178, looked up)
chain: B1 chain with C6T, L46C
modifications: S48 on Cys 46
notes: mature
B45: IL-10 Leu48Cys-R4-7 (ligand, human, UniProt P22301 19-178, looked up)
chain: B1 chain with C6T, L48C
modifications: R4-7 on Cys 48
notes: mature
B46: IL-10 Leu48Cys-S48 (ligand, human, UniProt P22301 19-178, looked up)
chain: B1 chain with C6T, L48C
modifications: S48 on Cys 48
notes: mature
B47: IL-10 Leu53Cys-R4-6 (ligand, human, UniProt P22301 19-178, looked up)
chain: B1 chain with C6T, L53C
modifications: R4-6 on Cys 53
notes: mature
B48: IL-10 Leu53Cys-S48 (ligand, human, UniProt P22301 19-178, looked up)
chain: B1 chain with C6T, L53C
modifications: S48 on Cys 53
notes: mature
B49: IL-10 Leu65Cys-R4-6 (ligand, human, UniProt P22301 19-178, looked up)
chain: B1 chain with C6T, L65C
modifications: R4-6 on Cys 65
notes: mature
B50: IL-10 Leu65Cys-S48 (ligand, human, UniProt P22301 19-178, looked up)
chain: B1 chain with C6T, L65C
modifications: S48 on Cys 65
notes: mature
B51: IL-10 Leu94Cys-R4-6 (ligand, human, UniProt P22301 19-178, looked up)
chain: B1 chain with C6T, L94C
modifications: R4-6 on Cys 94
notes: mature
B52: IL-10 Leu94Cys-S48 (ligand, human, UniProt P22301 19-178, looked up)
chain: B1 chain with C6T, L94C
modifications: S48 on Cys 94
notes: mature
B53: IL-10 Leu105Cys-R4-6 (ligand, human, UniProt P22301 19-178, looked up)
chain: B1 chain with C6T, L105C
modifications: R4-6 on Cys 105
notes: mature
B54: IL-10 Leu105Cys-S48 (ligand, human, UniProt P22301 19-178, looked up)
chain: B1 chain with C6T, L105C
modifications: S48 on Cys 105
notes: mature
B55: IL-10 Leu131Cys-R4-6 (ligand, human, UniProt P22301 19-178, looked up)
chain: B1 chain with C6T, L131C
modifications: R4-6 on Cys 131
notes: mature

biological target: T1, IL-10R1-Fc; test: ELISA, IL-10R1-Fc coated

Binder	Binding recovery (>60%)	Decreased fold of binding to ligand after Conjugating with S48
B1	101%	
B2	86.6%	
B3		12 fold
B4	99%	
B5		3 fold
B6	97.7%	
B7		7 fold
B8	84.3%	
B9		10 fold
B10	97.1%	
B11	92.3%	
B12		30 fold
B13	95.2%	
B14		13 fold
B15	92.1%	
B16		43 fold
B17	90.5%	
B18		15 fold
B19	87%	
B20		52 fold
B21	90%	
B22		18 fold
B23	99.8%	
B24		4 fold
B25	78%	
B26		13 fold
B27	82.5%	
B28		13 fold

Binder	Binding recovery (>60%)	Decreased fold of binding to ligand after Conjugating with S48
B29	90.2%	
B30		15 fold
B31	99.5%	
B32		3 fold
B33	97.3%	
B34		3 fold
B35	81.7%	
B36		9 fold
B37	95.3%	
B38		8 fold
B39	101%	
B40		12 fold
B41	93.4%	
B42		3 fold
B43	89.6%	
B44		22 fold
B45	98.9%	
B46		3 fold
B47	99.4%	
B48		3 fold
B49	92.3%	
B50		3 fold
B51	88.4%	
B52		5 fold
B53	92.3%	
B54		5 fold
B55	98.5%	
